Assay results as given in US20240392004A1 (IMMUNOWAKE, published 2024).
Residue numbers refer to the chain shown, from its start. Names may count otherwise. Each block holds one binder with its values, some of them ahead of it.

Columns and labels:
[1] = target: T1, human PD-1 on cells (HEK-PD-1 reporter cells; activated PBMC) (human, UniProt Q15116 25-288); assay: cell-based or functional assay
human PD-1 = target: T2, human PD-1 (human, UniProt Q15116 25-167, limits assumed); assay: Biacore and cell-based assays, calibrated by wildtype nivolumab binding affinity
T2 construct: also called hPD-1
T2 sequence (Q15116 25-167 limits assumed): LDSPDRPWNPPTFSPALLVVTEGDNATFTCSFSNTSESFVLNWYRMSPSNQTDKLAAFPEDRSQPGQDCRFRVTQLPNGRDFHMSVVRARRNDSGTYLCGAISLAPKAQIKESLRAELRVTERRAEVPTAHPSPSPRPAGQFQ

[2] = target: T1, human PD-1 on cells (HEK-PD-1 reporter …); assay: cell-based or functional assay; remark: listed apart in the source
[3] = target: human IL-12 receptor complex (IL-12Rβ1 and IL-12Rβ2) (human, UniProt P42701 24-662; Q99665 24-862); assay: cell-based or functional assay
Chain of human IL-12 receptor complex (IL-12Rβ1 and IL-12Rβ2) (Q99665 24-862, chain 2 of 2, other chains not shown): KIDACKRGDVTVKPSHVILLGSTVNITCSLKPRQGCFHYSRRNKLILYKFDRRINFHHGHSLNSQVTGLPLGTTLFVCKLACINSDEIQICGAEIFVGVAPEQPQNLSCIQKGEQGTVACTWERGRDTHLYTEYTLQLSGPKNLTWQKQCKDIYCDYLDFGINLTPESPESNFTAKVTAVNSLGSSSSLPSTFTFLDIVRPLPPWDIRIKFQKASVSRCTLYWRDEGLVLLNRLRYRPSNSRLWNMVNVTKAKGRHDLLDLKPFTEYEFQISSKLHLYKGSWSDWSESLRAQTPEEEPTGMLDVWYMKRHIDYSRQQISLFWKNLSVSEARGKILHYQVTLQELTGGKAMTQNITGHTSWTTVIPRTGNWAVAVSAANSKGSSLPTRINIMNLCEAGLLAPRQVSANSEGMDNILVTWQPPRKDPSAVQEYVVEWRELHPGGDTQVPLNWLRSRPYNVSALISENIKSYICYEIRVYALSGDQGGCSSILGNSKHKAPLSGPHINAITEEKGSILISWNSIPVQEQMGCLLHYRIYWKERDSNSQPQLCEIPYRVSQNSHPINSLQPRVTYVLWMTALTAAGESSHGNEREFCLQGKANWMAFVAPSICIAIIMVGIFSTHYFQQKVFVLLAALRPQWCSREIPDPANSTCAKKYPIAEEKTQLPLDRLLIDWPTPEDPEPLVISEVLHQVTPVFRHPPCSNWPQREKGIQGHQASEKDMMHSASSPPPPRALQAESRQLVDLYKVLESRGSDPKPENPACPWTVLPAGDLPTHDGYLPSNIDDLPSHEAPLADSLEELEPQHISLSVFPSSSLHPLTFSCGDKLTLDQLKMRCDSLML

[4] = target: T3, IFN-γ receptor (IFNGR1 and IFNGR2) (UniProt P15260 18-489; P38484 22-337, limits assumed); assay: cell-based or functional assay
T3 sequence (looked up) 1: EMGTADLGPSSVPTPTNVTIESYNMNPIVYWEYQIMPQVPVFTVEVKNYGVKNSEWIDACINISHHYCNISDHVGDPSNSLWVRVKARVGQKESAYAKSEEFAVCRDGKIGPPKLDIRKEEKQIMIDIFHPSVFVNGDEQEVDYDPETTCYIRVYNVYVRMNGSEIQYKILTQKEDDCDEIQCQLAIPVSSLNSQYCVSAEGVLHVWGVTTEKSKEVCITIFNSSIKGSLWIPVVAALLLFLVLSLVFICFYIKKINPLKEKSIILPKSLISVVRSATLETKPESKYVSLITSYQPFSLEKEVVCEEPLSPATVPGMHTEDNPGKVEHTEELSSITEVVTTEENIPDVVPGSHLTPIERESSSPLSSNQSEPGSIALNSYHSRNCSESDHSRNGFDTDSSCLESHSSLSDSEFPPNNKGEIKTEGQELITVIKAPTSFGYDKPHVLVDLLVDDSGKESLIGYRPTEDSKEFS
T3 sequence (looked up) 2: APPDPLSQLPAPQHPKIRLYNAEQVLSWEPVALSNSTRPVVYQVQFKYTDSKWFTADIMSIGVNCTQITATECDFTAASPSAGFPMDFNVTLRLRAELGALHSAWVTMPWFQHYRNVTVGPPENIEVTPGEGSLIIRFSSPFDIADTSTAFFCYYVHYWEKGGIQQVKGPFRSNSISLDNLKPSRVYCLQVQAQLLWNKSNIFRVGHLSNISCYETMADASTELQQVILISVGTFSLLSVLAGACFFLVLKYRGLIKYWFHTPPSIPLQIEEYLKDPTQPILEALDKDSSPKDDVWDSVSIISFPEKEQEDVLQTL

T1 sequence (Q15116 25-288): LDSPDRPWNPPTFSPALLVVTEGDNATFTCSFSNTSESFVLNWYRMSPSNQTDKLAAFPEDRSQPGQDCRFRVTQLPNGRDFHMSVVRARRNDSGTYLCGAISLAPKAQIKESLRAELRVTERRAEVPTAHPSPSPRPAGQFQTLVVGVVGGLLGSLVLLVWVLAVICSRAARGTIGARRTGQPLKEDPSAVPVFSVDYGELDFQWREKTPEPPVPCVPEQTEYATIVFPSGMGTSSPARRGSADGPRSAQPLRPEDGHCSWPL

Biological activity of IL-12, HEK-PD-1-IL-12 reporter assay, % of rIL-12 [1]: 189%
B1: PD-L1(I54Q/Y56F/E58M/R113T/M115L/S117A/G119K)-Fc/IL-12(E59A/F60A) (IL-12 at C-terminus of Fc) (Fc fusion)
chain 1: FTVTVPKDLYVVEYGSNMTIECKFPVEKQLDLAALQVFWMMEDKNIIQFVHGEEDLKVQHSSYRQRARLLKDQLSLGNAALQITDVKLQDAGVYTCLIAYKGADYKRITVKVNAPYNKINQRILVVDPVTSEHELTCQAEGYPKAEVIWTSSDHQVLSGKTTTTNSKREEKLFNVTSTLRINTTTNEIFYCTFRRLDPEENHTAELVIPELPLAHPPNERGSGDKTHTCPPCPAPEKKGGPSVFLFPPKPKDTLMISRTPEVTCVVVDVSHEDPEVKFNWYVDGVEVHNAKTKPREEQYNSTYRVVSVLTVLHQDWLNGKEYKCKVSNKALPAPIEKTISKAKGQPREPQVYVLPPSREEMTKNQVSLLCLVKGFYPSDIAVEWESNGQPENRYMTWPPVLDSDGSFFLYSKLTVDKSRWQQGNVFSCSVMHEALHNHYTQKSLSLSPGK
chain 2: FTVTVPKDLYVVEYGSNMTIECKFPVEKQLDLAALQVFWMMEDKNIIQFVHGEEDLKVQHSSYRQRARLLKDQLSLGNAALQITDVKLQDAGVYTCLIAYKGADYKRITVKVNAPYNKINQRILVVDPVTSEHELTCQAEGYPKAEVIWTSSDHQVLSGKTTTTNSKREEKLFNVTSTLRINTTTNEIFYCTFRRLDPEENHTAELVIPELPLAHPPNERGSGDKTHTCPPCPAPEDEGGPSVFLFPPKPKDTLMISRTPEVTCVVVDVSHEDPEVKFNWYVDGVEVHNAKTKPREEQYNSTYRVVSVLTVLHQDWLNGKEYKCKVSNKALPAPIEKTISKAKGQPREPQVYVYPPSREEMTKNQVSLTCLVKGFYPSDIAVEWESNGQPENNYKTTPPVLDEDGSFALVSKLTVDKSRWQQGNVFSCSVMHEALHNHYTQKSLSLSPGKGGGGSGGGGSGGGGSIWELKKDVYVVELDWYPDAPGEMVVLTCDTPEEDGITWTLDQSSEVLGSGKTLTIQVKAAGDAGQYTCHKGGEVLSHSLLLLHKKEDGIWSTDILKDQKEPKNKTFLRCEAKNYSGRFTCWWLTTISTDLTFSVKSSRGSSDPQGVTCGAATLSAERVRGDNKEYEYSVECQEDSACPAAEESLPIEVMVDAVHKLKYENYTSSFFIRDIIKPDPPKNLQLKPLKNSRQVEVSWEYPDTWSTPHSYFSLTFCVQVQGKSKREKKDRVFTDKTSATVICRKNASISVRAQDRYYSSSWSEWASVPCSGGGGSGGGGSGGGGSGGGGSGRNLPVATPDPGMFPCLHHSQNLLRAVSNMLQKARQTLEFYPCTSEEIDHEDITKDKTSTVEACLPLELTKNESCLNSRETSFITNGSCLASRKTSFMMALCLSSIYEDLKMYQVEFKTMNAKLLMDPKRQIFLDQNMLAVIDELMQALNFNSETVPQKSSLEEPDFYKTKIKLCILLHAFRIRAVTIDRVMSYLNAS

Biological activity of IL-12, HEK-PD-1-IL-12 reporter assay, % of rIL-12 [1]: 234%
B2: IL-12(F60A)/PD-L1(I54Q/Y56F/E58M/R113T/M115L/S117A/G119K)-Fc (IL-12 at hinge) (Fc fusion)
chain 1: B1 chain 1
chain 2: FTVTVPKDLYVVEYGSNMTIECKFPVEKQLDLAALQVFWMMEDKNIIQFVHGEEDLKVQHSSYRQRARLLKDQLSLGNAALQITDVKLQDAGVYTCLIAYKGADYKRITVKVNAPYNKINQRILVVDPVTSEHELTCQAEGYPKAEVIWTSSDHQVLSGKTTTTNSKREEKLFNVTSTLRINTTTNEIFYCTFRRLDPEENHTAELVIPELPLAHPPNERGSGIWELKKDVYVVELDWYPDAPGEMVVLTCDTPEEDGITWTLDQSSEVLGSGKTLTIQVKEAGDAGQYTCHKGGEVLSHSLLLLHKKEDGIWSTDILKDQKEPKNKTFLRCEAKNYSGRFTCWWLTTISTDLTFSVKSSRGSSDPQGVTCGAATLSAERVRGDNKEYEYSVECQEDSACPAAEESLPIEVMVDAVHKLKYENYTSSFFIRDIIKPDPPKNLQLKPLKNSRQVEVSWEYPDTWSTPHSYFSLTFCVQVQGKSKREKKDRVFTDKTSATVICRKNASISVRAQDRYYSSSWSEWASVPCSGGGGSGGGGSGGGGSGGGGSGRNLPVATPDPGMFPCLHHSQNLLRAVSNMLQKARQTLEFYPCTSEEIDHEDITKDKTSTVEACLPLELTKNESCLNSRETSFITNGSCLASRKTSFMMALCLSSIYEDLKMYQVEFKTMNAKLLMDPKRQIFLDQNMLAVIDELMQALNFNSETVPQKSSLEEPDFYKTKIKLCILLHAFRIRAVTIDRVMSYLNASDKTHTCPPCPAPEDEGGPSVFLFPPKPKDTLMISRTPEVTCVVVDVSHEDPEVKFNWYVDGVEVHNAKTKPREEQYNSTYRVVSVLTVLHQDWLNGKEYKCKVSNKALPAPIEKTISKAKGQPREPQVYVYPPSREEMTKNQVSLTCLVKGFYPSDIAVEWESNGQPENNYKTTPPVLDEDGSFALVSKLTVDKSRWQQGNVFSCSVMHEALHNHYTQKSLSLSPGK

Biological activity of IL-12, HEK-PD-1-IL-12 reporter assay, % of rIL-12 [1]: 126%
B3: IL-12(E59A/F60A)/PD-L1(I54Q/Y56F/E58M/R113T/M115L/S117A/G119K)-Fc (IL-12 at hinge) (Fc fusion)
chain 1: B1 chain 1
chain 2: B2 chain 2 with E282A

Biological activity of IL-12, HEK-PD-1-IL-12 reporter assay, % of rIL-12 [1]: 234%
B4: PD-L1(I54Q/Y56F/E58M/R113T/M115L/S117A/G119K)-Fc/IL-12(F60A) (IL-12 at C-terminus of Fc) (Fc fusion)
chain 1: B1 chain 1
chain 2: B1 chain 2 with A524E

Kd (human PD-1): 130 nM
B5: anti-PD-1 antibody HC-CDR3(D100G) (antibody, V domains shown)
VH: QVQLVESGGGVVQPGRSLRLDCKASGITFSNSGMHWVRQAPGKGLEWVAVIWYDGSKRYYADSVKGRFTISRDNSKNTLFLQMNSLRAEDTAVYYCATNGDYWGQGTLVTVSS
VL: EIVLTQSPATLSLSPGERATLSCRASQSVSSYLAWYQQKPGQAPRLLIYDASNRATGIPARFSGSGSGTDFTLTISSLEPEDFAVYYCQQSSNWPRTFGQGTKVEIKR
notes: constant parts as m82

Kd (human PD-1): 910 nM
B6: anti-PD-1 antibody HC-CDR3(D100R) (antibody, V domains shown)
VH: B5 VH with G100R
VL: B5 VL
notes: constant parts as m82

Kd (human PD-1): 25 nM
B7: anti-PD-1 antibody HC-CDR3(D100N) (antibody, V domains shown)
VH: B5 VH with G100N
VL: B5 VL
notes: constant parts as m82

IFN-γ signal transduction, HEK-IFN-γ-PD-1 [2]: 35%
IL-12 signal transduction, HEK-IL-12-PD-1 [2]: 45%
IL-12 signal transduction, HEK-IL-12 [3]: < 0.2%
IFN-γ signal transduction, HEK-IFN-γ [4]: < 0.1%
B8: IL-12(E59A/F60A)/IFN-γ(A23V/A23V)/PD-L2(mut2)-Fc (Fc fusion)
chain 1: LFTVTVPKELYIIEHGSNVTLECNFDTGSHVNLGAITAVLQKVENDTSPHRERATLLEEQLPLGKASFHIPQVQVRDEGQYQCIIIYGVAWDYKYLTLKVKASYRKINTHILKVPETDEVELTCQATGYPLAEVSWPNVSVPANTSHSRTPEGLYQVTSVLRLKPPPGRNFSCVFWNTHVRELTLASIDLQSQMEPRTHPTGGGGSGGGIWELKKDVYVVELDWYPDAPGEMVVLTCDTPEEDGITWTLDQSSEVLGSGKTLTIQVKAAGDAGQYTCHKGGEVLSHSLLLLHKKEDGIWSTDILKDQKEPKNKTFLRCEAKNYSGRFTCWWLTTISTDLTFSVKSSRGSSDPQGVTCGAATLSAERVRGDNKEYEYSVECQEDSACPAAEESLPIEVMVDAVHKLKYENYTSSFFIRDIIKPDPPKNLQLKPLKNSRQVEVSWEYPDTWSTPHSYFSLTFCVQVQGKSKREKKDRVFTDKTSATVICRKNASISVRAQDRYYSSSWSEWASVPCSGGGGSGGGSGGGGSRNLPVATPDPGMFPCLHHSQNLLRAVSNMLQKARQTLEFYPCTSEEIDHEDITKDKTSTVEACLPLELTKNESCLNSRETSFITNGSCLASRKTSFMMALCLSSIYEDLKMYQVEFKTMNAKLLMDPKRQIFLDQNMLAVIDELMQALNFNSETVPQKSSLEEPDFYKTKIKLCILLHAFRIRAVTIDRVMSYLNASGGGGSGGGDKTHTCPPCPAPEDEGGPSVFLFPPKPKDTLMISRTPEVTCVVVDVSHEDPEVKFNWYVDGVEVHNAKTKPREEQYNSTYRVVSVLTVLHQDWLNGKEYKCKVSNKALPAPIEKTISKAKGQPREPQVYVYPPSREEMTKNQVSLTCLVKGFYPSDIAVEWESNGQPENNYKTTPPVLDEDGSFALVSKLTVDKSRWQQGNVFSCSVMHEALHNHYTQKSLSLSPGK
chain 2: LFTVTVPKELYIIEHGSNVTLECNFDTGSHVNLGAITAVLQKVENDTSPHRERATLLEEQLPLGKASFHIPQVQVRDEGQYQCIIIYGVAWDYKYLTLKVKASYRKINTHILKVPETDEVELTCQATGYPLAEVSWPNVSVPANTSHSRTPEGLYQVTSVLRLKPPPGRNFSCVFWNTHVRELTLASIDLQSQMEPRTHPTGGGSGQDPYVKEAENLKKYFNAGHSDVVDNGTLFLGILKNWKEESDRKIMQSQIVSFYFKLFKNFKDDQSIQKSVETIKEDMNVKFFNSNKKKRDDFEKLTNYSVTDLNVQRKAIHELIQVMAELSPAAKTGKRKRSQMLFRGGGGSGGGGSGGGGSGGGGSQDPYVKEAENLKKYFNAGHSDVVDNGTLFLGILKNWKEESDRKIMQSQIVSFYFKLFKNFKDDQSIQKSVETIKEDMNVKFFNSNKKKRDDFEKLTNYSVTDLNVQRKAIHELIQVMAELSPAAKTGKRKRSQMLFRGGGGGSGGGDKTHTCPPCPAPEKKGGPSVFLFPPKPKDTLMISRTPEVTCVVVDVSHEDPEVKFNWYVDGVEVHNAKTKPREEQYNSTYRVVSVLTVLHQDWLNGKEYKCKVSNKALPAPIEKTISKAKGQPREPQVYVLPPSREEMTKNQVSLLCLVKGFYPSDIAVEWESNGQPENRYMTWPPVLDSDGSFFLYSKLTVDKSRWQQGNVFSCSVMHEALHNHYTQKSLSLSPGK

IFN-γ signal transduction, HEK-IFN-γ-PD-1 [2]: 40%
IL-12 signal transduction, HEK-IL-12-PD-1 [2]: 49%
IL-12 signal transduction, HEK-IL-12 [3]: < 0.2%
IFN-γ signal transduction, HEK-IFN-γ [4]: < 0.1%
B9: IL-12(E59A/F60A)/IFN-γ(A23V/A23V)/PD-L2(mut4)-Fc (Fc fusion)
chain 1: B8 chain 1 with T37V, Q41L
chain 2: B8 chain 2 with T37V, Q41L
